Literature values as cited in PMC3740200 (Dalton transactions (Cambridge, England : 2003), 2012).
Like-named read-outs stand apart in the source and are kept apart here.

Tests used:
[1] = ref [1]; for turnover number: 100 mM phosphate buffer pH 7, 25 °C
[2] = 4 °C, ref [16]
[3] = ref [16]
[4] = ref [2]

B1: WT DaCld: wild-type chlorite dismutase from Dechloromonas aromatica, heme-binding pentameric enzyme (protein, UniProt Q47CX0 32-282, looked up)
Chlorite dismutase: QQAMQPMQSMKIERGTILTQPGVFGVFTMFKLRPDWNKVPVAERKGAAEEVKKLIEKHKDNVLVDLYLTRGLETNSDFFFRINAYDLAKAQTFMREFRSTTVGKNADVFETLVGVTKPLNYISKDKSPGLNAGLSSATYSGPAPRYVIVIPVKKNAEWWNMSPEERLKEMEVHTTPTLAYLVNVKRKLYHSTGLDDTDFITYFETDDLTAFNNLMLSLAQVKENKFHVRWGSPTTLGTIHSPEDVIKALAD
In the case of B1, the turnover number [1] is given as 1.7×10^4 ClO2^− ions/heme, the turnover number ([1]; listed as WT) is given as 17000 ClO2^− ions/heme and the “turnovers before irreversibly inactivating” value [1] is given as ~ 20,000 turnovers. The kcat ([2]; acidic form) was 120 ± 5 × 10^2 s^-1, the kcat ([2]; alkaline form) was 460 s⁻¹ and the “pKa of alkaline transition (5cHS to 6cLS)” value [3] was 8.9. The “first order kobs of second step (PAA-independent)” value ([4]; pH 6.0) was 0.3 s⁻¹, the “second order rate constant k, formation of Compound I with PAA” value ([4]; pH 6) was 190000 M⁻¹ s⁻¹ and the “second order rate constant k, reaction with PAA” value ([4]; pH 8) was 1.3e+06 M⁻¹ s⁻¹.
